Laboratory results taken from patent publication EP4782466A1, “FUSION PROTEIN FOR INACTIVATING CORONAVIRUS AND USE THEREOF” (priority 2023, dated 2025).

Experiments:
Test in all cases: cell-based or functional assay
[1] = target: S protein of SARS-CoV-2 Omicron BA.1 (SARS-CoV-2 BA.1)
[2] = target: S protein of SARS-CoV-2 Omicron BA.3 (SARS-CoV-2 BA.3)
[3] = target: S protein of SARS-CoV-2 Omicron BQ.1 (SARS-CoV-2 BQ.1)
[4] = target: S protein of SARS-CoV-2 Omicron XBB (SARS-CoV-2 XBB)
[5] = target: S protein of SARS-CoV-2 Omicron BA.4.6 (SARS-CoV-2 BA.4.6)
[6] = target: S protein of SARS-CoV-2 Lambda (SARS-CoV-2 Lambda)
[7] = target: S protein of SARS-CoV-2 Omicron BA.5 (SARS-CoV-2 BA.5)
[8] = target: S protein of SARS-CoV-2 Beta (B.1.351) (SARS-CoV-2 Beta (B.1.351))
[9] = target: S protein of SARS-CoV-2 Omicron BA.2.75 (SARS-CoV-2 BA.2.75)
[10] = target: S protein of SARS-CoV-2 Alpha (B.1.1.7) (SARS-CoV-2 Alpha (B.1.1.7))
[11] = target: S protein of SARS-CoV-2 Omicron BA.2 (SARS-CoV-2 BA.2)
[12] = target: S protein of SARS-CoV-2 Delta (B.1.617.2) (SARS-CoV-2 Delta (B.1.617.2))
[13] = target: S protein of SARS-CoV-2 Omicron BA.2.9 (SARS-CoV-2 BA.2.9)
[14] = target: S protein of SARS-CoV-2 Omicron BA.2.2 (SARS-CoV-2 BA.2.2)
[15] = target: S protein of SARS-CoV-2 Gamma (P.1) (SARS-CoV-2 Gamma (P.1))
[16] = target: S protein of SARS-CoV-2 Omicron BF.7 (SARS-CoV-2 BF.7)
[17] = target: S protein of SARS-CoV-2 Omicron BA.2.12.1 (SARS-CoV-2 BA.2.12.1)

EK1 polypeptide gave an IC50, inhibition of pseudovirus infection (Caco-2, luciferase) [1] of 70.5 nM, an IC50, inhibition of pseudovirus infection (Caco-2, luciferase) [2] of 136 nM and an IC50, inhibition of pseudovirus infection (Caco-2, luciferase) [3] of 136 nM. The IC50, inhibition of pseudovirus infection (Caco-2, luciferase) [4] was 233 nM, the IC50, inhibition of pseudovirus infection (Caco-2, luciferase) [5] was 473 nM and the IC50, inhibition of pseudovirus infection (Caco-2, luciferase) [6] was 995 nM. For the same substance, the IC50, inhibition of pseudovirus infection (Caco-2, luciferase) [7] was 568 nM, the IC50, inhibition of pseudovirus infection (Caco-2, luciferase) [8] was 257 nM and the IC50, inhibition of pseudovirus infection (Caco-2, luciferase) [9] was 331 nM. The IC50, inhibition of pseudovirus infection (Caco-2, luciferase) [10] was 268 nM, the IC50, inhibition of pseudovirus infection (Caco-2, luciferase) [11] was 297 nM and the IC50, inhibition of pseudovirus infection (Caco-2, luciferase) [12] was 150 nM. It also gave an IC50, inhibition of pseudovirus infection (Caco-2, luciferase) [13] of 199 nM, an IC50, inhibition of pseudovirus infection (Caco-2, luciferase) [14] of 162 nM and an IC50, inhibition of pseudovirus infection (Caco-2, luciferase) [15] of 277 nM. It also gave an IC50, inhibition of pseudovirus infection (Caco-2, luciferase) [16] of 584 nM and an IC50, inhibition of pseudovirus infection (Caco-2, luciferase) [17] of 342 nM.
